{"source": "patent US20130095071A1", "about": "“METHOD OF TREATING OR PREVENTING HEARING LOSS” (Audigen Inc., priority 2009, published 2013)", "key": {"[1]": {"system": "cochlear hair cells", "assay": "Enzyme facilitated cochlear gene transfection with AAV through round window membrane", "format": "in vivo, guinea pig", "details": "after digestion of RWM", "description": "(§1) The reaction time was 10 minutes.\nFor inner ear gene transfection, a piece of gelfoam (1-2 mm^3) was placed gently on RWM. 5 ul AAV solution was applied to the gelfoam. The cochlea was taken out for cochlea immunostaining against GFP 2-4 weeks after the surgical application of AAV vectors.\nThe transfection is through intact round window membrane (RWM). Under appropriate anesthesia, a cut of 2 cm is made posterior to the earlap and the soft tissue is distracted to expose the mastoid. The round window of the guinea pig is exposed by drilling a small hole of 2-3 mm in diameter on the mastoid. Solution of collagenase II is freshly prepared at concentration of 150 units/ml. With the help of a microinjection pump, a total of 10 μl enzyme solution is applied to the round window niche at a flow rate of 10 nl/sec. After reaction time of 10 minutes, residual enzyme solution is sucked out first using suction pump and then use gelfoam. […] Hearing status is evaluated using audiotory brainstem response (ABR).\nThe transfection is evaluated 2 weeks after the surgery. […] GFP positive hair cells are counted along the length of the cochlear duct. […]\nA post-auricular approach was used to expose the tympanic bony bulla. […] The duration for the digestive treatment varied from 5 to 10 minutes and the quantity of the digestive solution 5 to 10 μl. […]"}, "[2]": {"assay": "Safety of enzyme digestion of RWM: ABR before and after surgery", "format": "in vivo, guinea pig", "details": "12 ears, 2-4 weeks after surgery", "description": "as §1\nABR was tested in animals underwent gene transfection before and just before the animal was killed for morphology.\nThe transfection is through intact round window membrane (RWM). Under appropriate anesthesia, a cut of 2 cm is made posterior to the earlap and the soft tissue is distracted to expose the mastoid. The round window of the guinea pig is exposed by drilling a small hole of 2-3 mm in diameter on the mastoid. Solution of collagenase II is freshly prepared at concentration of 150 units/ml. With the help of a microinjection pump, a total of 10 μl enzyme solution is applied to the round window niche at a flow rate of 10 nl/sec. After reaction time of 10 minutes, residual enzyme solution is sucked out first using suction pump and then use gelfoam. A piece of gelfoam (2-3 mm^3) is placed upon RWM and then 5 μl AAV-GFP is applied to the gelfoam. The hole of mastoid is covered by suturing the soft tissue. Hearing status is evaluated using audiotory brainstem response (ABR)."}, "[3]": {"assay": "SEM/TEM examination of round window membrane after enzyme digestion", "experimental": "Under appropriate anesthesia, the round window of the guinea pig was surgically exposed and inspected visually under a surgical microscope. Freshly prepared collagenase solution of 2-3 ul was applied to the round window niche with the help of a microinjection pump. The reaction time was 10 minutes. The residual solution was then sucked out and the RWM was washed with saline. The collagenase was used at a concentration of between 50 unit/ml to 200 unit/ml. In one example, the concentration used was 150 unit/ml. In the example provided here, the collagenase was collagenase from Clostridium histolyticum, Type II (available from Sigma).\nTo evaluate the damage of the digesting solution on RWW, the animal was killed immediately after the digestion and the cochleae were taken out and fixed with standard protocol for electronic microscopy. To evaluate if the damaged RWM heals spontaneously, some other animals were allowed to survive for 3 weeks before the RWMs were taken for examination.\nUnder deep anesthesia with an overdose of pentobarbital (100 mg/kg), the animal was decapitated and the temporal bone was rapidly removed and the cochlea extracted. To examine the RWM, the cochlea was immersed into a fixative of 2.5% glutaraldehyde overnight at 4° C., and post fixed in 2% OsO4 for 2 hours. […]"}}}
{"substance": "collagenase", "values": [{"measurement": "permeability of RWM to AAV", "setting": "[1]", "value": "makes RWM permeable to AAV"}, {"measurement": "ABR threshold shift", "setting": "[2]; 32, 48 kHz", "value": "less than 15 dB"}, {"measurement": "hearing loss", "setting": "[2]; other frequencies tested", "value": "no hearing loss"}, {"measurement": "damage to RWM (SEM, TEM)", "setting": "[3]; 3 weeks after the treatment", "value": "no difference from normal control"}, {"measurement": "damage to RWM (SEM, TEM)", "setting": "[3]; immediately after the treatment", "value": "causes damage to the epithelia facing middle ear"}]}
